{"source": "patent US20240239878A1", "about": "(SHANGHAI QILU PHARMACEUTICAL RESEARCH AND DEVELOPMENT CENTRE, published 2024)", "binders": {"B1": {"name": "DLL3-3 camelid-derived anti-DLL3 chimeric antibody (antibody, human IgG1, V domains shown)", "VH": "DVQLVESGGGSVQAGGSLKLSCKSPTYTISSGYMGWFRQAPGKEREGVAAIYIGGSTTLYADSVKGRFTISADNAEKTVYLQMNTLKPEDSAMYYCAAQLRPNSAYHPLDGRKYNYWGQGTQVTVSS"}, "B2": {"name": "DLL3-122 camelid-derived anti-DLL3 chimeric antibody (antibody, human IgG1, V domains shown)", "VH": "QVQLVESGGGSVQAGGSLRLSCTASGDTYRSYCMGWFRKAPGKEREGVADIVSDGSTSYADSVKGRFTISKDNAKNTLYLQMNSLKPEDTAMYYCAVDRGGSGGYCYTGRYDYWGQGTQVTVSS"}, "B3": {"name": "DLL3-26 camelid-derived anti-DLL3 chimeric antibody (antibody, human IgG1, V domains shown)", "VH": "QVQLVESGGGSVQAGGSLRLSCAASGDIYSSSYVGWFRQAPGKEREGVAIIYTSGDSTYYANSVKGRFTISQDKAKKTLYLQMNSLKPEDTAMYYCAARFAIDNSNYWGQGTQVTVSS"}, "B4": {"name": "hDLL3-3-1 camelid-derived humanized anti-DLL3 antibody (antibody, human IgG1, V domains shown)", "VH": "EVQLVESGGGLVQPGGSLRLSCAASTYTISSGYMGWFRQAPGKEREGVAAIYIGGSTTLYADSVKGRFTISRDNSKNTLYLQMNSLRAEDTAVYYCAAQLRPNSAYHPLDGRKYNYWGQGTLVTVSS"}, "B5": {"name": "hDLL3-3-2 camelid-derived humanized anti-DLL3 antibody (antibody, V domains shown)", "VH": "B4 VH with A23K, A24S, S25P"}, "B6": {"name": "hDLL3-122 camelid-derived humanized anti-DLL3 antibody (antibody, V domains shown)", "VH": "EVQLVESGGGLVQPGGSLRLSCAASGDTYRSYCMGWFRQAPGKEREGVADIVSDGSTSYADSVKGRFTISRDNSKNTLYLQMNSLRAEDTAVYYCAVDRGGSGGYCYTGRYDYWGQGTLVTVSS"}, "B7": {"name": "hDLL3-26 camelid-derived humanized anti-DLL3 antibody (antibody, V domains shown)", "VH": "EVQLVESGGGLVQPGGSLRLSCAASGDIYSSSYVGWFRQAPGKEREGVAIIYTSGDSTYYADSVKGRFTISRDNSKNTLYLQMNSLRAEDTAVYYCAARFAIDNSNYWGQGTLVTVSS"}}, "note": "Numbering of substitutions follows the chain as printed.", "data": [{"target": "T1, Cynomolgus monkey DLL3 on HEK293 cells (HEK293-cyno DLL3) (Cynomolgus monkey, UniProt Q9NYJ7 27-618 (human entry))", "T1 chain": "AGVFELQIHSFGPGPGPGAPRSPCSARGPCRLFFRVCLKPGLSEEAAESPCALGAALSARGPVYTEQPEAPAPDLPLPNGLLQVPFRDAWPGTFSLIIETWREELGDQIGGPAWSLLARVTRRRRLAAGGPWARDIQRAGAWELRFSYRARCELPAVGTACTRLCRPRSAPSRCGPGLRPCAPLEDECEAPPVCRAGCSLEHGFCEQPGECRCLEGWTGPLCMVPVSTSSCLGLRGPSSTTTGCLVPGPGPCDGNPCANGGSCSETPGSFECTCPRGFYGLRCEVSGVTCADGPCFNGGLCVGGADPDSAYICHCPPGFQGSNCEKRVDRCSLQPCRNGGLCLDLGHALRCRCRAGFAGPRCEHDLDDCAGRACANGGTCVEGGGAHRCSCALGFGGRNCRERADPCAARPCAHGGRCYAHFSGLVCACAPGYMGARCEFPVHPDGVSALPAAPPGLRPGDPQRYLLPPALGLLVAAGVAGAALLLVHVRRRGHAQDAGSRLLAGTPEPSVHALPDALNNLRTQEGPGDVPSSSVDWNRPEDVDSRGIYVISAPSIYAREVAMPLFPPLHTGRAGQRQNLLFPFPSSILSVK", "test": "flow cytometry, HEK293-cyno DLL3 cells", "method": "(§1) Monoclonal selection was performed, and the expression level of DLL3 protein in the monoclonal cells were identified by flow cytometry. The culture was expanded and stored in storage for later use. SHP-77 and HEK293-cyno DLL3 cells were cultured. The culture medium for SHP-77 cells were RPMI1640+10% FBS, and the culture medium for HEK293 cyno DLL3 cells were DMEM+10% FBS+200 μg/ml Hygromycin. The cells were cultured in a T75 cell culture flask at a 37° ° C. in a 5% CO₂ incubator. When using cells, they are washed with sterile DPBS, digested with 0.25% trypsin EDTA for about 5 minutes, and then stopped with a complete medium.\n(§2) The digested cells were centrifuged at 1000 rpm for 5 min at room temperature. The supernatant was discarded and the cells were resuspended in 100 μL of 1% BSA (in PBS). The cells were counted and adjusted to a cell density of 1E6/m. The dilute cells were seeded in a 96-well round-bottom culture plate (corning 3799), and centrifuged at 1500 rpm for 5 min at 4° C. The supernatant was discarded and the cells were stored at 4° C. until use. Antibody samples to be tested were diluted with 1% BSA (in PBS) at a starting concentration of 100 nM, downwards by a 10-fold gradient for 7 concentrations. The cells were resuspended with the diluted antibody at 100 μL/well and incubated for 1 hour at 4° C. The cells were centrifuged at 1500 rpm for 5 minutes at 4° C. and the supernatant was discarded. The cells were resuspended and washed with 160 μL of 1% BSA (in PBS), centrifuged at 1500 rpm for 5 minutes at 4° C. The supernatant was discarded. The secondary antibody (goat anti human IgG Fc PE) was diluted 1:200 with 1% BSA (in PBS) according to the manufacturer's instructions and the cells were resuspended with the diluted secondary antibody. 100 μL/well, and incubated for 0.5 h at 4° C. The cells were centrifuged at 1500 rpm for 5 minutes at 4° C. and the supernatant was discarded. The cells were resuspended and washed with 160 μL of 1% BSA (in PBS), centrifuged at 1500 rpm for 5 minutes at 4° C. The supernatant was discarded. The cells were resuspended in 100 μL of 1% BSA (in PBS), and filtered across a 300 mesh gauze. The mean fluorescence intensity of the PE channels was measured by flow cytometry.", "units": {"EC50": "nM", "Top MFI": "MFI"}, "values": [{"binder": "B1", "EC50": 0.025, "Top MFI": 438}, {"binder": "B2", "EC50": 0.415, "Top MFI": 460}, {"binder": "B3", "EC50": 0.439, "Top MFI": 450}]}, {"target": "T2, human DLL4 (Sino Biological, Cat. No. 10171-H08H) (human, UniProt Q9NR61 27-529)", "T2 construct": "also called family protein DLL4", "T2 sequence (Q9NR61 27-529 limits assumed)": "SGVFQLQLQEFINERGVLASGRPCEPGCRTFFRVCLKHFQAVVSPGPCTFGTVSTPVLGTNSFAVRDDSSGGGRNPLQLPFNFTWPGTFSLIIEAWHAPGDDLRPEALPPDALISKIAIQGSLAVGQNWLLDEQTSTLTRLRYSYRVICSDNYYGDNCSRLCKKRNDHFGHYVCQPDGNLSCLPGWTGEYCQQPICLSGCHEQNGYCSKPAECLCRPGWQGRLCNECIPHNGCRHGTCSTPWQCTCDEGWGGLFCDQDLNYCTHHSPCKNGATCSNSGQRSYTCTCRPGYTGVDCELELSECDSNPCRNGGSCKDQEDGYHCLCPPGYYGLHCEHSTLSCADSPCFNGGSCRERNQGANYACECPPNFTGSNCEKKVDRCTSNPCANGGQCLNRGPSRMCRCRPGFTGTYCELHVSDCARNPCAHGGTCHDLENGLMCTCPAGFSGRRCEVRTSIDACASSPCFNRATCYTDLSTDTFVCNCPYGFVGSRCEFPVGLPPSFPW", "test": "ELISA, plate coated with human DLL4 at 1 ug/mL, OD 450nm", "method": "The antigen was washed three times with PBST, 300 μL/well. The antigen was blocked with 1% BSA (in PBST), 200 μL/well, and incubated at 37° C. for 1.5 hours.\nAntibodies to be tested were diluted with 1% BSA (in PBS) at a starting concentration of 100 nM, downwards by a 10-fold gradient for 7 concentrations. The plates were washed three times with PBST, 300 μL/well. The diluted antibody was added to an ELISA plate at 100 μL/well and incubated at room temperature for 2 hours. The antibodies were washed three times with PBST, 300 μL/well. The secondary antibodies (goat anti-human IgG Fc for DLL4 (HRP), 1:20000 dilution: HRP goat anti-mouse IgG (H+L) for DLL1, 1:10000 dilution) were diluted with 1% BSA in PBST. The diluted secondary antibodies were added to the ELISA plate at 100 μL/well and incubated at room temperature for 1 hour. The plates were washed 6 times with PBST, 300 μL/well. The developing solution (TMA and TMB 1:1 mixed) was prepared. The developing solution was added to the plate, 100 μL/well, and incubated in the dark for 5 min. 50 μL of ELISA stop solution was added to the plate and shaken well.\nOD450s were read on the envision and plotted on the GraphPad for EC₅₀ values.", "values": [{"binder": "B4", "binding result": "no binding (tested: 100 nM)"}, {"binder": "B5", "binding result": "no binding (tested: 100 nM)"}, {"binder": "B6", "binding result": "no binding (tested: 100 nM)"}, {"binder": "B7", "binding result": "no binding (tested: 100 nM)"}]}, {"target": "T3, human DLL3 on SHP-77 cells (human, UniProt Q9NYJ7 27-618)", "T3 construct": "also called DLL3-expressing cells (SHP-77)", "T3 sequence": "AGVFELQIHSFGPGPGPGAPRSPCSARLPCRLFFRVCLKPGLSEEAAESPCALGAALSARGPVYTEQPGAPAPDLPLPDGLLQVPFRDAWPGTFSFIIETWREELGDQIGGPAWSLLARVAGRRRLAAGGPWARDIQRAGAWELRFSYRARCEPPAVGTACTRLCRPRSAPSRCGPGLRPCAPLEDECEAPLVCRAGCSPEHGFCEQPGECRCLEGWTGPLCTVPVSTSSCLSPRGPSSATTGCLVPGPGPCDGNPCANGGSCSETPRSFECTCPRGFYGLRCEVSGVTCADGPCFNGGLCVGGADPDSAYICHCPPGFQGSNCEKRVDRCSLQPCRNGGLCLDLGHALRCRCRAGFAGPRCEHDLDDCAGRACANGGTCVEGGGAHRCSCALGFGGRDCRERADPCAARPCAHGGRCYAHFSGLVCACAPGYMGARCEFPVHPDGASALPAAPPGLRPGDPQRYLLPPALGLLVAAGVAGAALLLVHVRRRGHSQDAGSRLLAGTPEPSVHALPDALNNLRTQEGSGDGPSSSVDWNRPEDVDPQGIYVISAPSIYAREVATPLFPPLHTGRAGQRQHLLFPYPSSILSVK", "test": "flow cytometry, SHP-77 cells", "method": "as §1, §2", "units": {"EC50": "nM", "Top MFI": "MFI"}, "values": [{"binder": "B1", "EC50": 0.047, "Top MFI": 874}, {"binder": "B2", "EC50": 0.427, "Top MFI": 846}, {"binder": "B3", "EC50": 0.519, "Top MFI": 821}]}]}
